* marks the point of attachment. Biotin = O=C1N[C@H]2[C@H](CS[C@H]2CCCCC(=O)*)N1
Assays:
[1] = target: T1, recombinant mature dimeric myostatin (human and mouse (mature sequences 100% …, UniProt O08689 268-376)); test: ELISA, myostatin coated at 10 ng/well
T1 construct: also called GDF-8; mature myostatin
T1 sequence: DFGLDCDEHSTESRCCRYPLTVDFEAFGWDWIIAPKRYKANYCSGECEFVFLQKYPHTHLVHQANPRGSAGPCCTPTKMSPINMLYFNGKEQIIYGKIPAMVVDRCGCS
Description: 10B3 and 10B3 chimera (10B3C) bound myostatin (R&D Systems, 788-G8-010/CF) in a sandwich ELISA. Plates were coated with myostatin at 10 ng/well and blocked with Block solution (PBS, 0.1% TWEEN and 1% BSA). Following washing (PBS, 0.1% TWEEN), antibody was incubated at 37° C. for 2 hours over a dilution series and plates washed again prior to incubation at 37° C. for 1 hour with anti-mouse HRP or anti-human HRP (Dako, P0161 & Sigma, A-8400, respectively). Plates were again washed and OPD substrate (Sigma, P9187) added until colourometric reaction occurred and the reaction stopped by the addition of H₂SO₄.

[2] = target: T1, recombinant mature dimeric myostatin; test: cell-based or functional assay
[3] = target: T2, myostatin artificial peptide No 29 (SGSGHTHLVHQANPRGSA) (HELM PEPTIDE1{[O=C1N[C@H]2[C@H](CS[C@H]2CCCCC(=O)[*:2])N1].S.G.S.G.H.T.H.L.V.H.Q.A.N.P.R.G.S.A.[am]}$$$$V2.0; SMILES …); test: SRU BIND biosensor, peptides captured on streptavidin plate
T2 construct: also called Peptide 29
T2 peptide: SGSGHTHLVHQANPRGSA
Description: (§1) Work was carried out on an SRU BIND reader (SRU Biosystems). A streptavidin biosensor plate was washed, a baseline reading taken, and biotinylated peptides captured onto the streptavidin coated biosensor plate. The plate was washed again, and a new baseline reading taken, antibody was then added and binding monitored.

[4] = target: T3, myostatin artificial peptide No 45 (SGSGGKEQIIYGKIPAMV) (HELM PEPTIDE1{[O=C1N[C@H]2[C@H](CS[C@H]2CCCCC(=O)[*:2])N1].S.G.S.G.G.K.E.Q.I.I.Y.G.K.I.P.A.M.V.[am]}$$$$V2.0; SMILES …); test: as above
T3 construct: also called Peptide 45
T3 peptide: SGSGGKEQIIYGKIPAMV
Description: as §1

[5] = target: T4, myostatin artificial peptide No 7 (SGSGSRCCRYPLTVDFEA) (cysteine pairing not given here); test: as above
T4 construct: also called Peptide 7
T4 peptide: Biotin-SGSGSRCCRYPLTVDFEA-NH2
Description: as §1

[6] = target: T5, myostatin artificial peptide No 15 (SGSGWDWIIAPKRYKANY) (HELM PEPTIDE1{[O=C1N[C@H]2[C@H](CS[C@H]2CCCCC(=O)[*:2])N1].S.G.S.G.W.D.W.I.I.A.P.K.R.Y.K.A.N.Y.[am]}$$$$V2.0; SMILES …); test: as above
T5 construct: also called Peptide 15
T5 peptide: SGSGWDWIIAPKRYKANY
Description: as §1

[7] = target: T6, myostatin artificial peptide No 31 (SGSGVHQANPRGSAGPCC) (cysteine pairing not given here); test: as above
T6 construct: also called Peptide 31
T6 peptide: Biotin-SGSGVHQANPRGSAGPCC-NH2
Description: as §1

[8] = target: T7, myostatin artificial peptide No 47 (SGSGIIYGKIPAMVVDRC) (HELM PEPTIDE1{[O=C1N[C@H]2[C@H](CS[C@H]2CCCCC(=O)[*:2])N1].S.G.S.G.I.I.Y.G.K.I.P.A.M.V.V.D.R.C.[am]}$$$$V2.0; SMILES …); test: as above
T7 construct: also called Peptide 47
T7 peptide: SGSGIIYGKIPAMVVDRC
Description: as §1

[9] = target: T8, myostatin artificial peptide No 41 (SGSGPINMLYFNGKEQII) (HELM PEPTIDE1{[O=C1N[C@H]2[C@H](CS[C@H]2CCCCC(=O)[*:2])N1].S.G.S.G.P.I.N.M.L.Y.F.N.G.K.E.Q.I.I.[am]}$$$$V2.0; SMILES …); test: as above
T8 construct: also called Peptide 41
T8 peptide: SGSGPINMLYFNGKEQII
Description: as §1

[10] = target: T9, myostatin artificial peptide No 19 (SGSGRYKANYCSGECEFV) (cysteine pairing not given here); test: as above
T9 construct: also called Peptide 19
T9 peptide: Biotin-SGSGRYKANYCSGECEFV-NH2
Description: as §1

[11] = target: T10, myostatin artificial peptide No 11 (SGSGTVDFEAFGWDWIIA) (HELM PEPTIDE1{[O=C1N[C@H]2[C@H](CS[C@H]2CCCCC(=O)[*:2])N1].S.G.S.G.T.V.D.F.E.A.F.G.W.D.W.I.I.A.[am]}$$$$V2.0; SMILES …); test: as above
T10 construct: also called Peptide 11
T10 peptide: SGSGTVDFEAFGWDWIIA
Description: as §1

[12] = target: T11, myostatin artificial peptide No 3 (SGSGDCDEHSTESRCCRY) (cysteine pairing not given here); test: as above
T11 construct: also called Peptide 3
T11 peptide: Biotin-SGSGDCDEHSTESRCCRY-NH2
Description: as §1

[13] = target: T12, myostatin artificial peptide No 27 (SGSGQKYPHTHLVHQANP) (HELM PEPTIDE1{[O=C1N[C@H]2[C@H](CS[C@H]2CCCCC(=O)[*:2])N1].S.G.S.G.Q.K.Y.P.H.T.H.L.V.H.Q.A.N.P.[am]}$$$$V2.0; SMILES …); test: as above
T12 construct: also called Peptide 27
T12 peptide: SGSGQKYPHTHLVHQANP
Description: as §1

B1: mouse monoclonal antibody 10B3 (antibody, mouse IgG2a, V domains shown)
VH: EVQLQQSGPELVKPGASVKISCKASGYSFTGYFMHWVKQSHGNILDWIGNIYPYNGVSNYNQRFKAKATLTVDKSSSTAYMELRSLTSEDSAVYYCARRYYYGTGPADWYFDVWGTGTTVTVSS
VL: DIKMTQSPSSMYASLRERVTITCKASQDINSYLSWFQQKPGKSPKTLIYRANRLVDGVPSRFSGSGSGQDYSLTISSLEYEDMGIYYCLQCDEFPLTFGAGTKLELK
notes: Murine IgG2a/k; also called 10B3 mouse parental; parental 10B3
[1]
  EC50: 0.069 µg/mL
[2]
  IC50, myostatin responsive reporter gene neutralisation assay (A204): 10 nM
[3]
  binding result: no binding
[4]
  binding result: no binding
[5]
  binding result: no binding
[6]
  binding result: no binding
[7]
  binding result: no binding
[8]
  binding result: no binding
[9]
  binding result: no binding
[10]
  binding result: no binding
[11]
  binding result: no binding
[12]
  binding result: no binding
[13]
  binding result: no binding

Reference: patent publication US20130142788A1 (published 2013)
